Measurements taken from the DeepSol protein solubility set.

Assay: soluble on expression in E. coli; label from the status in PepcDB or PDB records

| Sequence | soluble on expression in E. coli |
| --- | --- |
| MSLDFNDEIYRELNRICASLSQQCSTYQPEFRTCLDAAFQALRGGKLIRPRMLLGLYNTLVDDDIEVKLNTVLQVAVALELLHFSLLVHDDVIDGDLYRRGKLNFIGQILMHRTPESFAQIQRDPEHLDWAQSNGLLMGNLFLAATHQIFARLDLPHHQRVRLLDLLNHTINDTIVGEFLDVGLSSKAISPNMDIALEMSRLKTATYTFELPMRAAAILAELPQEIETKIGEIGTNLGIAYQLQDDYLSTFGDAAEHGKDAFSDLREGKETTIIAFARDTAKWTDIQDNFGSADLSTSQAERIQHLLIQCGAKNHSLNAISDHLNICRSMIKTLSPQVDPKAQNLLLKQVEQLASRKSEGHHHHHH | soluble |
| MSLDHHLQGPVVAGMPNLHSHAFQRGMAGLSESRSGEKDSFWSWRKRMYHFLQVLSPEDVEAIASQLYLEMLKAGYTSVGEFHYLHHAVDGKHYANPAEMSERILAASETTGIGLTHLPVLYRFGGFGSREPSFQQGRFIHEPDEFVSLLEKLSPSFEKHPNRRLGMAPHSLRAVSPDLLSKVLPEFQRLCPGSPLHLHISEQTAEVEECLEWSGLRPVQWFFENLEPDSNWCLIHATHLDSQERRKLAESEVTVGLCPTTEANLGDGIFPMKEFMEEGGGFGIGSDSHVSISLCEELRWLEYQQRLLQRQRNCLREGHHHHHH | soluble |
| MSLDKRYIIAEIKVSIVKTQSAGADYTDHAAGHWINDTIIANPMSVYNDFQHSRSAWGMDVLKGIFIEVTTESGHQGYATAYGGYISSWIIKNHLNRFLIGADARNLSKLYDQMYRASIPYSGQNGVVINTIAGIDLALWDLIGKVRQEPVYMMIGGKVREKLQTYVTGPEAKLAQDWGHVGSKIPLPYGPGDGIVGLKKNQEYIMETRKQVGSDYRLMVDCYMSLDVPYAIDLANAVKEANLYWIEEALPPHDLESHKHIKDACPWQKWTTGEHTNSRYGFRNLIRDRSVDILQPDLTLCGMTETLRIAAMASAYDITVIPHCSGVYAYNFGIASTLTPFNEFINLHPKATEVVPIFGKMFTNEPVPIKGEVTLTDLPGFGAELNKEVELEEIEGHHHHHH | soluble |
| MSLDLREYSTDHQKIKRIEFNCKSKNNTLDGLLTPEEIVAEAKRQGHSAVGISDYNSIFSFPEFYYAAKANNIKPIYGAGFAMLEDTNGAFLTEFQNQDLITGRYVVFDIETTSLSAYHGEIIEFAATIIENKAVVDKVDIFIKSKEKLSHFTTRLTSITNEMLDQKGIELKEALQKIYDVMNNNVAVAHNANFDYNFLIEKFDQNNMQAPKCTFIDSLVVSRILFEHRDKHNLNEFCRNMSVNYDTEKAHRALYDTEVLADAWIEATLKMKDIKQISNFQELSEYKSDALFSKYFSLYINTVVKNQAGLKELFQLVSIANTKTFYGAPKIFWSTLKSFKNILVGSNGVQGELFDIMMLSSRQRVEKYIQKLDYIEIPHPDLFDSYLDRNQLTKDQLLESLQILISLAKKHNKLIISTAEPRYRHKGDREIFKVLTSFPIRDKRHFLWNYKAVKAGNYSVPNFYFLTTDEMLDAFSFLKDKSLIEDIVVNNAHKLNNLIDENIEVIKTDLYPPSIKNSSELLKDLVYKNAKKKYGEVLPKLVQDRIDKELIPIINYKFDVVYWISHILVKKANDDGYVVGSRGSVGSSLIANLINITEVNPLEPHYICDNCKHFEVVNNDKITSGYDLDDKNCPNCDSIMDKDGHSIPFETFLGFKADKVPDIDLNFSGEYQIAIHNYTRELFGEDKTFRAGTVSSIQYRKAFGFIKKYIEDTNTFYSNGFIDYLAEKCIDVKVTTGKHAGGIVVLPENLDIEEFTPVNYASDGLEDKEWKTTHFKYDFLKENLLKLDLLGHSDPTQIRFLEQATGLLSKNIPKKDKNLLKLFSSTEPMEIDPNDINGETTGAIALPEFGTKFTREIIKTSKPHLFADLISISGLSHGQNVWKNNAEDLILNENKTLNEIVCCRDDIMNYLIKKGVDASLSFKVTESVRKGKGVDSEDIKILSTYNIPDWFFDSMQKIKYMFPRAHAVAYVIMAWRMGYYKLYYPLEFYASFFSVKCSKFDLSAMIDFSKDGYWKIKNKIEEIEKLIRTNNKKDNKKEEDILESLNVALEMYSRGFTIQNIDIEKSDAYNWIIDKDSKSLIPPFSALDGIEAGAIKIINARKERPFKTVLDFAKRSGVSSTIVEKLKELNVFKDLPESEQLSLFGEGHHHHHH | soluble |
| MSLDNAMRNIFNGMMTTTSPASFETATRTGVVGGSFSYRTTNVNTNLVSMSFPKASVGCNGIDVFLGSFSMINGDQLVQVARGIAQGAAIYAFNVAVSAICADCAATINDIQNKLQALNKFAKDSCNATYSFLTENVGPPSQFANAVSSGPASMLGTLNGLLPDFGSSMTKSPETVTSQVKAKDPEEFAEKFSGNLFYMSFMDIDKGSMNIGGVTELSGYRLAEQLMSLVGTVIINWDAKGEKAGMEVRPSTMTVSDFIMGPPAGGSIKMLKCSPAPDPASARKSQCLVMSEVTDGGFKGLKDTISDLLIQVQTKAISDVRISDDELRIISYIGIPTILDSLQTFDVPEGYAYIQDISAIAATSLVINMLRQVEAKISAMNIPSESLSGRRQDLTRLSENLTNQVKAAYELTRSQVGNSSDVISAWDDRRLKRKAFMESLRGTGNEGHHHHHH | not soluble |
| MSLDPVGPISDEETSYYVRLQYNGEFLPLFTKVDGITYKKDKSDYSPLKPSFIAGGGAFGYKMDDIRVDVEGVYSYLNKNDVKDVTFDPANTIADSVTAISGLVNVYYDIAIEDMPITPYIGVGVGATYISTPLEPAVNDQKSKFGFAGQVKAGVSYDVTPEVKLYAGARYFGSYGANFDGKKTDPKDSTRQVTDAGAYKVLYSTVGAEAGVAFNFEGHHHHHH | not soluble |
| MSLDRNEMLEFAAKLHSHLSPGVALGIKMAQIAYEKLGVNFRGKGLVGIAETAMCLPDALQVVAGTTPGNRNLIVKDYGKLALAIVRFDTREGYRVTIKKEAAKKSELIKKFLYRLGKLNKEEEKRLAEEFLNLEPEYFEVREIRLTIPVGGTKEPIVECEKCGELQPSDYVAEVDGRMVCFMCAGKGYFEEGGSHHHHHH | soluble |
| MSLDRVDWPHATFSTPVKRIFDTQTTLDFQSSLAIHRIKYHLHKYTTLISHCSDPDPHATASSIAMVNGLMGVLDKLAHLIDETPPLPGPRRYGNLACREWHHKLDERLPQWLQEMLPSEYHEVVPELQYYLGNSFGSSTRLDYGTGHELSFMATVAALDMLGMFPHHRGADVFLLFNKYYTIMRRLILTYTLEPAGSHGVWGLDDHFHLVYILGSSQWQLLDAQAPLQPREILDKSLVREYKDTNFYCQGINFINEVKMGPFEEHSPILYDIAVTVPRWSKVCKGLLKMYSVEVEKKFPVVQHFWFGTGFFPWVNIHHHHHH | soluble |
| MSLDSKIDILIVVNMFLTGFDSKVLNTLYVDKNLMYHDLIQAYSRTNRVEKESKPFGKIVNYRDLKKETDDALRVFSQTNDTDTILMRSYEEYKKEFMDAYRELKMIVPTPHMVDDIQDEEELKRFVEAYRLLAKIILRLKAFDEFEFTIDEIGMDEQENEDYKSKYLAVYDQVKRATAEKNKVSILNDIDFEIEMMRNDTINVNYIMNILRQIDLEDKAEQREGHHHHHH | soluble |
| MSLDTDSGENNKDSSIPQGGVTVSPEVLAHRPLIEKYGKEYGIEDYVSYILAIMQVESGGTAEDVMQSSESLGLPPNSLSTEESIKQGVKYFSELLTSAEQQGVDIDSVIQSYNYGGGFLNYVRSHGKKYTYELAEQFSKEKSGGQKADYPNPIAIPVNGGWRYNYGNQFYVQLVSQYLTDTSPTEFDDETVQVIMDEALKYEGFPYVFGGASPTTSFDCSGLIQWVYDKAGISLPRVAQDQYDATQEISMEEAQAGDLIFFHSTYNAGTYVTHVAIYLEGNRFYHAGDPIGYGDLSSRYWQDHLIGARRVIHNEGHHHHHH | soluble |
| MSLEEIETDVLVIGGGPGGMSAAINAGKYGAKVLLVDENPFLGGQLVKQTHRFFGSAKERAGTRGIKIAGILEEELNSIENVEVRRETRVFGIYNGEAGAYQRLNDDEGKLLRIKAKKIVVATGAYERTLIFENNDLPGVYGAGGVQTLMNVYGIKPGNMGLIVGSGNVGLILTYQLMQAGVNVAAIVEAMPRIGGYFVHAAKVRRLGVPIYVRHTILKAIGRKSVEGAVIAQLDDRWQPIPGTEKEIKCDFICVAVGLSPTHELLYQAGCEMKFVPELGGIVPLRTRFNETSVKGLYVAGDVAGIEEATAAIMEGRIAGIHAAVTLGYGGEEAKKELDEAVKEIEEFRAGPFGERIVCGLEKCTLESEGHHHHHH | soluble |
| MSLEEQREILEQLKKTLQMLTVEPSKNNQIANEEKEKKENENSWCILEHNYEDIAQEFIDFIYKNPTTYHVVSFFAELLDKHNFKYLSEKSNWQDSIGEDGGKFYTIRNGTNLSAFILGKNWRAEKGVGVIGSHVDALTVKLKPVSFKDTAEGYGRIAVAPYGGTLNELWLDRDLGIGGRLLYKKKGTNEIKSALVDSTPLPVCRIPSLAPHFGKPAEGPFDKEDQTIPVIGFPSPDEEGNEPPTDDEKKSPLFGKHCIHLLRYVAKLAGVEVSELIQMDLDLFDVQKGTIGGIGKHFLFAPRLDDRLCSFAAMIALICYAKDVDTEESELFSTVTLYDNEEIGSLTRQGAKGGLLESVVERSSSAFTKKAVDLHTVWANSIILSADVNHLYNPNFPEVYLKNHFPVPNVGITLSLDPNGHMATDVVGTALVEELARRNGDKVQYFQIKNNSRSGGTIGPSLASQTGARTIDLGIAQLSMHSIRAATGSKDVGLGVKFFNGFFKHWRSVYDEFGELEGHHHHHH | soluble |
| MSLEEVIEQLREANEPVPVPLELPDEDQLVEIEEQLFINIPFVFKEFLLTVSDVVYGSLEPVTVTDPQSHTYLPEVCATAWDLGVPRELIPICQDGEDYYCVEEDGTVLLWSAEEELVTEESWESVWHWARDVWLESEGHHHHHH | soluble |
| MSLEFFMAKADNPAFEQGQSPRMRLPDSVPLLIVGGGIMGLWAAVKAERLGIGTLLVEAGRLGGGASGGLLGALMPHMPDRWSDKKQFQFDALVALEAEIAGLEAETGLSGGYRRCGRIIPLPKPHLRGIAERHERDAAENWRSGERRFQWHVGERPSVAGWVDDAAGEAGFVFDTLAARVSPRALIALLSAFLRKARHVQVAEGCRVVSLDADAGRAALSSGEEISFGHVVVANGHESFPLIRDALGLEAGVALGQAVKGQAALLDASADPAMPVVFLNGLYIVPHEDGTVAIGSTSEDCFSEPFSTDEKLEKLLVDACTVVPSLAGAPVLERWAGLRPKAVGRDPMVGAMAGTAKLVALSGGFKVSFGLAHFLADAALETVCGHTPVIPSGFRLQEHVSIAVPDFRKFLEHHHHHH | not soluble |
| MSLEGYTVIIKTGNEDLDRRLTGLPFPALIMIEGDHGTGKSVLAAQICYGLLISDKKGYVITTEQTTKDYLVKMRDVKINLIPFFIKGSLGVAPLNTNKFNWNSDLANKILDLIIDFVKKRKNIEFLIIDSLSVLATFAEERQILQFMKESRVLVDLGKLILFTIHPDVFSEEIKSRITSIVDVYFKLSAVTIGGRRIKVLERVKTVGGIQGSDTISFDIDPALGIKVIPLSLSRAEGHHHHHH | soluble |
| MSLEIIKTGLAAFGMSGQVFHAPFISTNPHFELYKIVERSKELSKERYPQASIVRSFKELTEDPEIDLIVVNTPDNTHYEYAGMALEAGKNVVVEKPFTSTTKQGEELIALAKKKGLMLSVYQNRRWDADFLTVRDILAKSLLGRLVEYESTFARYRNFIKPNTWKETGESGGGLTYNLGSHLIDQAIQLFGMPEAVFADLGILREGGKVDDYFIIHLLHPSLAPNVKITLKASYLMREAEPRFALHGTLGSYVKYGVDKQEAALLAGEIPERPNWGEESEQEWGLLHTEINGKEICRKYPGIAGNYGGFYQNIYEHLCLGQPLETHAQDILNVIRIIEAAYQSHRENKIVNLKEGHHHHHH | soluble |
